Experimental findings from article doi:10.1101/2024.07.03.601791 are described below.

In the assay the target is PR20 modified with a dansyl group at the N-terminus (Dnc-PR20). Nature of the assay: other fluorescence titration.

Sequence of Kapβ2 Δloop (Q92973 9-898, stated change not applied): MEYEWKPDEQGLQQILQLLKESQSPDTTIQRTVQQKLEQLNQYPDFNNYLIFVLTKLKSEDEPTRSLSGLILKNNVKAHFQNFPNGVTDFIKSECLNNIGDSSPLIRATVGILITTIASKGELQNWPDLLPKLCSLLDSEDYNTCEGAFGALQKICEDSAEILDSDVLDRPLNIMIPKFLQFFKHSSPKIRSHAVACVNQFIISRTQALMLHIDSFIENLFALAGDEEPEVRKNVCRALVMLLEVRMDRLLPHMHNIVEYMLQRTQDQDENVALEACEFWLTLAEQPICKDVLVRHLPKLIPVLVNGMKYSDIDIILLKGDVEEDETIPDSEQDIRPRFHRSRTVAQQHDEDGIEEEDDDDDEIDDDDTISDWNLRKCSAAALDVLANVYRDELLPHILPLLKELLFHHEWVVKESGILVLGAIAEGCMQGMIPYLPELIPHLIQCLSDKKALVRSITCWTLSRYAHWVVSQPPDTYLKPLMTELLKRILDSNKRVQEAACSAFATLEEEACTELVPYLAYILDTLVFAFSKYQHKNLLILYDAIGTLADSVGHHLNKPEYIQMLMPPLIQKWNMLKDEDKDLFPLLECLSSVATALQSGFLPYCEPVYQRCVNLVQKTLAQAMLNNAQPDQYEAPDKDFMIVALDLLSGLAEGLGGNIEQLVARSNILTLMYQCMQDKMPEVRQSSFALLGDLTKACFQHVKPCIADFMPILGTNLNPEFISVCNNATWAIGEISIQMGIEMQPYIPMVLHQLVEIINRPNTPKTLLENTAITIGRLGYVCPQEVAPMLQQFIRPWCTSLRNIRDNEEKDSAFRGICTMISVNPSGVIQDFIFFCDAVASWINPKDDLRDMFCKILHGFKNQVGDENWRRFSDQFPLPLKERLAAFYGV

The Kd is the free concentration of one partner at which half of the binding sites on the other are occupied at equilibrium, for simple one-to-one binding. Take “Kapβ2 Δloop (from UniProt Q92973-2 1-890) (natural protein)”: the Kd came to 310 nM.
